The subject of this data set is recombinant human cathelin-like protein (cathelin-like domain of hCAP18, residues 31-131), after removal of the N-terminal tag with enterokinase.

We go through one substance from US7173007.

Sequence of human liver cathepsin L (Calbiochem) (chain, as listed by the source): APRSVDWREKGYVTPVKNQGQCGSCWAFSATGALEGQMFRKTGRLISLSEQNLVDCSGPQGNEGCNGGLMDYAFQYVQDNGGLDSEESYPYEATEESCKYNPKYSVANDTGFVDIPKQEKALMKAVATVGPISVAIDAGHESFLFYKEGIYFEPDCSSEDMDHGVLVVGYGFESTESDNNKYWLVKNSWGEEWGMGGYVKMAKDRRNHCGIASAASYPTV
Sequence of recombinant human cathelin-like protein (cathelin-like domain of hCAP18, residues 31-131), after removal of the N-terminal tag with enterokinase (chain, as listed by the source): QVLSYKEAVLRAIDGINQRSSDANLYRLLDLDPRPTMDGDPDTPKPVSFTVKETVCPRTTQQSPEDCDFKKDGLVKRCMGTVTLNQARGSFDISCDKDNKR

With human liver cathepsin L (Calbiochem), the “hydrolysis of Z-Phe-Arg-AMC by cathepsin L alone and with cathelin-like protein” value is given as “Data demonstrate inhibition of cathepsin L by the addition of cathelin-like recombinant protein”; the “slope of fluorescence generation (Z-Phe-Arg-AMC hydrolysis) with cathelin-like protein; cathepsin L alone gave 1.31” value is reported as “slope=1.31 vs 0.71, respectively”.
